T1: human IFN-γ (Homo sapiens, UniProt P01579)
T1 sequence (P01579 24-166): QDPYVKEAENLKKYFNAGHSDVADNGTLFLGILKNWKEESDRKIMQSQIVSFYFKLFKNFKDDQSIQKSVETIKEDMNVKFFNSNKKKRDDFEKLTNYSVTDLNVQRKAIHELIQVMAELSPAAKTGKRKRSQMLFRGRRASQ

T2: mouse recombinant TNF-α (Mus musculus, UniProt P06804)
T2 sequence (P06804 80-235 limits assumed): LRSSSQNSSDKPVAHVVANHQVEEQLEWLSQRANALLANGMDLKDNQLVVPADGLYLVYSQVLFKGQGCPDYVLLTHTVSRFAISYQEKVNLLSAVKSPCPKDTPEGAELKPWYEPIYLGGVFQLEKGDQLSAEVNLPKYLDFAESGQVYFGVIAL

T3: mouse recombinant IFN-γ (Mus musculus, UniProt P01580)
T3 sequence (P01580 23-155): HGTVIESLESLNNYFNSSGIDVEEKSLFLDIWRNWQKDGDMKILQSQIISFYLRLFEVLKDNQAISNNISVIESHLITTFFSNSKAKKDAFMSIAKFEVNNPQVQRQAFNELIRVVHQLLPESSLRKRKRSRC

B1: Alkaline Protease: Aspergillus oryzae alkaline protease (oryzin), SEQ ID NO: 2, purified from the protease powder of Example 1 (protein, listed as Aspergillus oryzae)
chain: MQSIKRTLLLLGAILPAVLGAPVQETRRAAEKLPGKYIVTFKPGIDEAKIQEHTTWATNIHQRSLERRGATGGDLPVGIERNYKINKFAAYAGSFDDATIEEIRKNEDVAYVEEDQIYYLDGLTTQKSAPWGLGSISHKGQQSTDYIYDTSAGEGTYAYVVDSGVNVDHEEFEGRASKAYNAAGGQHVDSIGHGTHVSGTIAGKTYGIAKKASILSVKVFQGESSSTSVILDGFNWAANDIVSKKRTSKAAINMSLGGGYSKAFNDAVENAFEQGVLSVVAAGNENSDAGQTSPASAPDAITVAAIQKSNNRASFSNFGKVVDVFAPGQDILSAWIGSSSATNTISGTSMATPHIVGLSLYLAALENLDGPAAVTKRIKELATKDWKDVKGSPNLLAYNGNA
B2: 26 kDa Protease: A. oryzae protease cloned recently by Novozyme, labeled the 26 kDa protease, SEQ ID NO: 3 (protein, listed as Aspergillus oryzae)
chain: HASADAWASSKAISSTSSPSSFKMRFISVSSLLLALAPALNAVPVEVAGSAQGLDVTLSQVGNTRIKAWKNTGSEDVTFVHLNFFKDAAPVQKVSLFRNATEVQFQGIKQRLITEGLSDDALTTLAPGATIEDEFDIASTSDLSEGGTITINSNGLVPITTDNKVTGYIPFTSNELSIDVDAAEAASVTQAVKILERRTKVTSCSGSRLSALQTALRNTVSLARAAATAAQSGSSSRFQEYFKTTSSSTRSTVAARLNAVANEAASTSSGSTTYYCSDVYGYCSSNVLAYTLPSYNIIANCDLYYSYLPALTSTCHAQDQATTTLHEFTHAPGVYSPGTDDLGYGYSAATALSASQALLNADTYALFANAVNLNC

What was measured:
human TNF-α = human TNF-α (Homo sapiens, UniProt P01375); assay: Human TNF-α hydrolysis (Western blotting); assay type: biochemical; conditions: 50 ng cytokine with 2.5, 5, 10 ng protease, overnight at 37° C., Western blot
Sequence of human TNF-α (P01375 77-233 limits assumed): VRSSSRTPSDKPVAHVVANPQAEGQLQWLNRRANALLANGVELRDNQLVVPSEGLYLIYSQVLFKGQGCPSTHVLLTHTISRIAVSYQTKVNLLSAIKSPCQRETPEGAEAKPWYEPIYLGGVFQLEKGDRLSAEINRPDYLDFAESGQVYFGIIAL
Procedure: (§1) Effects of the purified A. oryzae proteases on human recombinant TNF-α: (A) protease powder prepared according to Example 1 (preparation); (B) alkaline protease; (C) 26 kDa protease; and (D) deuterolysin. 50 ng quantities of TNF-α were incubated at 37° C. for 18 hours with the indicated quantities of protease powder prepared according to Example 1, alkaline protease, 26 kDa protease or deuterolysin. Western blotting was then used to determine substrate specificity. C=control, buffer-treated TNF-α.
Human TNF-α is cleaved and inactivated by Aspergillus oryzae alkaline protease. Purified cytokine (50 ng) was first combined with the following amounts [2.5, 5, and 10 ng] of protease powder prepared according to Example 1 (preparation), as well as alkaline protease, 26 kDa protease, and deuterolysin prepared according to Example 2. Each mixture was incubated overnight at 37° C. and examined by Western blotting for evidence of proteolysis. […] Because the antibody used in this Western blot was specific for the carboxyl terminus of human TNF-α, these enzymes cleaved the cytokine at the amino terminus yielding a smaller peptide that retained the C-terminal epitope.

human IFN-γ = target: T1, human IFN-γ; assay: Human IFN-γ degradation (Western blotting); assay type: biochemical; conditions: Western blot, antibody to carboxyl terminus
Procedure: as §1, with “IFN-γ:” for “TNF-α:”, “(C) deuterolysin; and (D)” for “(C)”, “protease.” for “protease; and (D) deuterolysin.”, “human IFN-γ” for “TNF-α”, “preparation,” for “protease powder prepared according to Example 1,”, “IFN-γ.” for “TNF-α.”
Cleavage was evidenced by the disappearance of the native 17 kDa IFN-γ band, rather than the appearance of distinct cleavage peptides. Because the antibody used in this Western blot was specific for the carboxyl terminus of human IFN-γ, these enzymes attack the cytokine at the C terminus (e.g., there is a loss in reactivity with the anti-cytokine antibody, rather than the appearance of smaller peptide products).

mouse recombinant TNF-α = target: T2, mouse recombinant TNF-α; assay: Bioactivity of protease-treated mouse TNF-α in the C2C12 cell bioassay (nitrite); assay type: cell-based; set-up: key to Inactivation of Mouse TNF-α: +: Indicates that the protease inactivated the cytokine; ^a: Cleavage of the cytokine occurred without inactivation; conditions: for Effect on bioactivity of mouse TNF-α: C2C12 cells, NO (nitrite) production
Procedure: Effects of three purified A. oryzae proteases on the bioactivity of mouse TNF-α (A) protease powder prepared according to Example 1 (preparation); (B) alkaline protease; (C) 26 kDa protease; and (D) deuterolysin. 50 ng quantities of TNF-α were incubated at 37° C. for 24 hours with the indicated quantities of the protease powder prepared according to Example 1 or one of the three purified proteases. The reactions were then stopped by addition of FBS and samples were added to C2C12 cells that had been costimulated with mouse IFN-γ. Twenty-four hours later, nitrite was measured in culture fluids.
The protease powder prepared according to Example 1 inactivates mouse recombinant TNF-α. 50 ng of the cytokine was treated for 24 hours with either 0 (□); 5 (∘); or 10 ng ([…]) of either Pseudomonas elastase (A) or protease powder prepared according to Example 1 (B). Then the residual bioactivity of the cytokine was measured by its ability to co-activate mouse C2C12 myoblast cells in the presence of excess IFN-γ for the production of NO (nitrite).
The protease powder prepared according to Example 1 inactivates mouse recombinant TNF-α by limited proteolysis. (FIG. 16 A-B) This property was established by measuring the loss of activity of TNF-α in a bioassay in which the cytokine was used to coactivate mouse myoblast C2C12 cells for the production of NO by transcriptional activation of the inducible NO synthase (iNOS) gene. The assay can be used to measure either TNF-α or IFN-γ activity by adding test samples containing one of the cytokines to cells stimulated with an excess of the other cytokine. Nitrite is a stable endproduct of NO produced by the cells. […] (FIG. 16A-B).
The three purified proteases were then compared for their ability to inactivate mouse TNF-α using the C2C12 cell bioassay.

mouse recombinant IFN-γ = target: T3, mouse recombinant IFN-γ; assay: Bioactivity of protease-treated mouse IFN-γ (NO production by C2C12 cells); assay type: cell-based
Procedure: Effects of three purified A. oryzae proteases on the bioactivity of mouse IFN-γ: (A) protease powder prepared according to Example 1 (preparation); (B) alkaline protease; (C) 26 kDa protease; and (D) deuterolysin. 50 ng quantities of mouse recombinant IFN-γ were incubated for 24 hours at 37° C. with either buffer or 2.5-10 ng of the indicated protease: (∘) Buffer; (▴) 2.5 ng; ([…]) 5 ng; (▪) 10 ng. IFN-γ bioactivity was determined as conduction of NO production by C2C12 cells.
To evaluate the specificity of this effect, the three Aspergillus oryzae proteases were tested for their ability to inactivate mouse IFN-γ, and a different pattern was seen. […] This was an unexpected finding given the ability of alkaline protease to cause partial proteolysis of IFN-γ.

[1] = Table 4, cited from earlier work

Molecule	Cleavage of human TNF-α (human TNF-α)	Cleavage of human IFN-γ (human IFN-γ)	Effect on bioactivity of mouse TNF-α (mouse recombinant TNF-α)	Inactivation of Mouse TNF-α (mouse recombinant TNF-α; Table 7 summary)	Effect on bioactivity of mouse IFN-γ (mouse recombinant IFN-γ)	pI [1]	Heat stability ([1]; deuterolysin for 10 min, alkaline protease for 3 h)
B1	produced a similar pattern of cleavage	did not cleave human IFN-γ	dose-dependent inactivation of mouse TNF-α	+	did not significantly affect the activity of mouse IFN-γ	6.53	Stable at 37 °C
B2	to a lesser extent	cleave human IFN-γ	devoid of such activity	–	primarily associated with the 26 kDa protease	6.72	–

Reference: patent publication US20090068174A1, “THERAPEUTIC ALKALINE PROTEASE COMPOSITIONS AND USE IN FACILITATING THE TRANSPORT OF AGENTS ACROSS THE GASTROINTESTINAL MUCOSAL LINING” (Kansas University Medical Center Research Institute, Inc., priority 2007, published 2009)
